Several values for one entry are separate records, joined by “and”; a condition that tells them apart may be missing. Identical values can stand only once. Ends that are not written are not given here. * marks the point of attachment. C16 diacid = O=C(O)CCCCCCCCCCCCCCC(=O)*
T1: human GIP receptor (human, UniProt P48546 22-466)
T1 construct: whole, on cells; also called hGIPR
T1 sequence (looked up): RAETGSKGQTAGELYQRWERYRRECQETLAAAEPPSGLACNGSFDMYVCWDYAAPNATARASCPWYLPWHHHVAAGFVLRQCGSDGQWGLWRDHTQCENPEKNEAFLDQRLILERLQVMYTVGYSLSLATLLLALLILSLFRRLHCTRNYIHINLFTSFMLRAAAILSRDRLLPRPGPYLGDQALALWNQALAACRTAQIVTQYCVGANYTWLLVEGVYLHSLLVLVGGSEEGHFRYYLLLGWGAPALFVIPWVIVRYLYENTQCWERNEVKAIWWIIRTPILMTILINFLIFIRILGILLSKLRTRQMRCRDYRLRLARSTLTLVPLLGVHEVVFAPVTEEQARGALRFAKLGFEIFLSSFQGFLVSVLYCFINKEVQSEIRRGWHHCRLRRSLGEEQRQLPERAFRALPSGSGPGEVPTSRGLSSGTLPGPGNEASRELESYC

T2: human GIP receptor (human, UniProt P48546 22-466)
T2 construct: whole, on cells; Transiently transfected COS-7 cells expressing the human GIP receptor; also called hGIPR
T2 sequence (looked up): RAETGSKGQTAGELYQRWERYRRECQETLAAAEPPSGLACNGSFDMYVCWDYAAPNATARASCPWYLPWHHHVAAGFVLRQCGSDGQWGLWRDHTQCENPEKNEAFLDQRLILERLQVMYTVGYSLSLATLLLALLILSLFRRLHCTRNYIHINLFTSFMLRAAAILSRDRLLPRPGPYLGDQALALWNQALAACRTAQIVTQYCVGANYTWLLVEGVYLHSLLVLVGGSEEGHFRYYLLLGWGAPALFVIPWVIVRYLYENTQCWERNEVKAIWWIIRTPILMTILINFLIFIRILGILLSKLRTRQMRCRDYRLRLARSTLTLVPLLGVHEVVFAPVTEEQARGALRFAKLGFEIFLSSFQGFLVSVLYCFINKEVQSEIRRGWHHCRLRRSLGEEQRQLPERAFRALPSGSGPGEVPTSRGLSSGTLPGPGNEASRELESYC

B1: AT189 [hGIP(5-30)NH2[Q29K]-C16diacid/29] (peptide)
peptide: TFISDYSIAMDKIHQQDFVNWLLAK(C16 diacid)K-NH2
modifications: N-terminus assumed
SMILES: CC[C@H](C)[C@H](NC(=O)[C@H](CO)NC(=O)[C@H](Cc1ccc(O)cc1)NC(=O)[C@H](CC(=O)O)NC(=O)[C@H](CO)NC(=O)[C@@H](NC(=O)[C@H](Cc1ccccc1)NC(=O)[C@@H](N)[C@@H](C)O)[C@@H](C)CC)C(=O)N[C@@H](C)C(=O)N[C@@H](CCSC)C(=O)N[C@@H](CC(=O)O)C(=O)N[C@@H](CCCCN)C(=O)N[C@H](C(=O)N[C@@H](Cc1c[nH]cn1)C(=O)N[C@@H](CCC(N)=O)C(=O)N[C@@H](CCC(N)=O)C(=O)N[C@@H](CC(=O)O)C(=O)N[C@@H](Cc1ccccc1)C(=O)N[C@H](C(=O)N[C@@H](CC(N)=O)C(=O)N[C@@H](Cc1c[nH]c2ccccc12)C(=O)N[C@@H](CC(C)C)C(=O)N[C@@H](CC(C)C)C(=O)N[C@@H](C)C(=O)N[C@@H](CCCCNC(=O)CCCCCCCCCCCCCCC(=O)O)C(=O)N[C@@H](CCCCN)C(N)=O)C(C)C)[C@@H](C)CC
B2: AT172 [hGIP(5-30)NH2[Y10K]-C16diacid/10] (peptide)
peptide: TFISDK(C16 diacid)SIAMDKIHQQDFVNWLLAQK-NH2
modifications: N-terminus assumed
SMILES: CC[C@H](C)[C@H](NC(=O)[C@H](CO)NC(=O)[C@H](CCCCNC(=O)CCCCCCCCCCCCCCC(=O)O)NC(=O)[C@H](CC(=O)O)NC(=O)[C@H](CO)NC(=O)[C@@H](NC(=O)[C@H](Cc1ccccc1)NC(=O)[C@@H](N)[C@@H](C)O)[C@@H](C)CC)C(=O)N[C@@H](C)C(=O)N[C@@H](CCSC)C(=O)N[C@@H](CC(=O)O)C(=O)N[C@@H](CCCCN)C(=O)N[C@H](C(=O)N[C@@H](Cc1c[nH]cn1)C(=O)N[C@@H](CCC(N)=O)C(=O)N[C@@H](CCC(N)=O)C(=O)N[C@@H](CC(=O)O)C(=O)N[C@@H](Cc1ccccc1)C(=O)N[C@H](C(=O)N[C@@H](CC(N)=O)C(=O)N[C@@H](Cc1c[nH]c2ccccc12)C(=O)N[C@@H](CC(C)C)C(=O)N[C@@H](CC(C)C)C(=O)N[C@@H](C)C(=O)N[C@@H](CCC(N)=O)C(=O)N[C@@H](CCCCN)C(N)=O)C(C)C)[C@@H](C)CC
B3: AT168 [hGIP(5-30)NH2[F6K]-C16diacid/6] (peptide)
peptide: TKISDYSIAMDKIHQQDFVNWLLAQK
modifications: C16-diacid (1,16-hexadecanedioic acid) on Lys at position 6 in GIP numbering (residue 2 of the entry); C-terminal amide
B4: AT170 [hGIP(5-30)NH2[S8K]-C16diacid/8] (peptide)
peptide: TFIK(C16 diacid)DYSIAMDKIHQQDFVNWLLAQK-NH2
modifications: N-terminus assumed
SMILES: CC[C@H](C)[C@H](NC(=O)[C@H](CO)NC(=O)[C@H](Cc1ccc(O)cc1)NC(=O)[C@H](CC(=O)O)NC(=O)[C@H](CCCCNC(=O)CCCCCCCCCCCCCCC(=O)O)NC(=O)[C@@H](NC(=O)[C@H](Cc1ccccc1)NC(=O)[C@@H](N)[C@@H](C)O)[C@@H](C)CC)C(=O)N[C@@H](C)C(=O)N[C@@H](CCSC)C(=O)N[C@@H](CC(=O)O)C(=O)N[C@@H](CCCCN)C(=O)N[C@H](C(=O)N[C@@H](Cc1c[nH]cn1)C(=O)N[C@@H](CCC(N)=O)C(=O)N[C@@H](CCC(N)=O)C(=O)N[C@@H](CC(=O)O)C(=O)N[C@@H](Cc1ccccc1)C(=O)N[C@H](C(=O)N[C@@H](CC(N)=O)C(=O)N[C@@H](Cc1c[nH]c2ccccc12)C(=O)N[C@@H](CC(C)C)C(=O)N[C@@H](CC(C)C)C(=O)N[C@@H](C)C(=O)N[C@@H](CCC(N)=O)C(=O)N[C@@H](CCCCN)C(N)=O)C(C)C)[C@@H](C)CC
B5: AT156 [hGIP(5-30)NH2[H18K]-C16diacid/18] (peptide)
peptide: TFISDYSIAMDKIK(C16 diacid)QQDFVNWLLAQK-NH2
modifications: N-terminus assumed
SMILES: CC[C@H](C)[C@H](NC(=O)[C@H](CO)NC(=O)[C@H](Cc1ccc(O)cc1)NC(=O)[C@H](CC(=O)O)NC(=O)[C@H](CO)NC(=O)[C@@H](NC(=O)[C@H](Cc1ccccc1)NC(=O)[C@@H](N)[C@@H](C)O)[C@@H](C)CC)C(=O)N[C@@H](C)C(=O)N[C@@H](CCSC)C(=O)N[C@@H](CC(=O)O)C(=O)N[C@@H](CCCCN)C(=O)N[C@H](C(=O)N[C@@H](CCCCNC(=O)CCCCCCCCCCCCCCC(=O)O)C(=O)N[C@@H](CCC(N)=O)C(=O)N[C@@H](CCC(N)=O)C(=O)N[C@@H](CC(=O)O)C(=O)N[C@@H](Cc1ccccc1)C(=O)N[C@H](C(=O)N[C@@H](CC(N)=O)C(=O)N[C@@H](Cc1c[nH]c2ccccc12)C(=O)N[C@@H](CC(C)C)C(=O)N[C@@H](CC(C)C)C(=O)N[C@@H](C)C(=O)N[C@@H](CCC(N)=O)C(=O)N[C@@H](CCCCN)C(N)=O)C(C)C)[C@@H](C)CC
B6: AT169 [hGIP(5-30)NH2[I7K]-C16diacid/7] (peptide)
peptide: TFK(C16 diacid)SDYSIAMDKIHQQDFVNWLLAQK-NH2
modifications: N-terminus assumed
SMILES: CC[C@H](C)[C@H](NC(=O)[C@H](CO)NC(=O)[C@H](Cc1ccc(O)cc1)NC(=O)[C@H](CC(=O)O)NC(=O)[C@H](CO)NC(=O)[C@H](CCCCNC(=O)CCCCCCCCCCCCCCC(=O)O)NC(=O)[C@H](Cc1ccccc1)NC(=O)[C@@H](N)[C@@H](C)O)C(=O)N[C@@H](C)C(=O)N[C@@H](CCSC)C(=O)N[C@@H](CC(=O)O)C(=O)N[C@@H](CCCCN)C(=O)N[C@H](C(=O)N[C@@H](Cc1c[nH]cn1)C(=O)N[C@@H](CCC(N)=O)C(=O)N[C@@H](CCC(N)=O)C(=O)N[C@@H](CC(=O)O)C(=O)N[C@@H](Cc1ccccc1)C(=O)N[C@H](C(=O)N[C@@H](CC(N)=O)C(=O)N[C@@H](Cc1c[nH]c2ccccc12)C(=O)N[C@@H](CC(C)C)C(=O)N[C@@H](CC(C)C)C(=O)N[C@@H](C)C(=O)N[C@@H](CCC(N)=O)C(=O)N[C@@H](CCCCN)C(N)=O)C(C)C)[C@@H](C)CC
B7: AT171 [hGIP(5-30)NH2[D9K]-C16diacid/9] (peptide)
peptide: TFISK(C16 diacid)YSIAMDKIHQQDFVNWLLAQK-NH2
modifications: N-terminus assumed
SMILES: CC[C@H](C)[C@H](NC(=O)[C@H](CO)NC(=O)[C@H](Cc1ccc(O)cc1)NC(=O)[C@H](CCCCNC(=O)CCCCCCCCCCCCCCC(=O)O)NC(=O)[C@H](CO)NC(=O)[C@@H](NC(=O)[C@H](Cc1ccccc1)NC(=O)[C@@H](N)[C@@H](C)O)[C@@H](C)CC)C(=O)N[C@@H](C)C(=O)N[C@@H](CCSC)C(=O)N[C@@H](CC(=O)O)C(=O)N[C@@H](CCCCN)C(=O)N[C@H](C(=O)N[C@@H](Cc1c[nH]cn1)C(=O)N[C@@H](CCC(N)=O)C(=O)N[C@@H](CCC(N)=O)C(=O)N[C@@H](CC(=O)O)C(=O)N[C@@H](Cc1ccccc1)C(=O)N[C@H](C(=O)N[C@@H](CC(N)=O)C(=O)N[C@@H](Cc1c[nH]c2ccccc12)C(=O)N[C@@H](CC(C)C)C(=O)N[C@@H](CC(C)C)C(=O)N[C@@H](C)C(=O)N[C@@H](CCC(N)=O)C(=O)N[C@@H](CCCCN)C(N)=O)C(C)C)[C@@H](C)CC

Assays:
human GIP receptor [1] = biological target: T1, human GIP receptor; experiment: 125I-hGIP competition binding, COS-7/hGIPR, 2% HSA;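 note: nonspecific binding defined as radioligand binding to untransfected cells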
Protocol: (§1) After incubation, the cells were washed twice in ice-cold binding buffer (+/−2% HSA) and lysed using 200 mM NaOH with 1% SDS for 30 min. Nonspecific binding was determined as the binding of radioactive ligand to untransfected cells.

human GIP receptor [2] = biological target: T1, human GIP receptor; experiment: IC50 with 2% HSA over IC50 with 0.1% casein, 125I-hGIP competition, COS-7/hGIPR
Protocol: as §1

human GIP receptor [3] = biological target: T1, human GIP receptor; experiment: cell-based or functional assay
human GIP receptor [4] = biological target: T1, human GIP receptor; experiment: 125I-hGIP competition binding, COS-7 cells expressing hGIPR;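 note: nonspecific binding taken as radioligand bound by untransfected cells, binding buffer with or without 2% HSA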
Protocol: as §1

human GIP receptor [5] = biological target: T1, human GIP receptor; experiment: 125I-hGIP competition binding, COS-7/hGIPR, 0.1% casein;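 note: nonspecific binding defined as radioligand binding measured on untransfected cells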
Protocol: as §1

human GIP receptor [6] = biological target: T2, human GIP receptor; experiment: 125I-hGIP(1-42) competition binding, COS-7 cells expressing human GIPR, without HSA;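 note: nonspecific binding defined as radioligand bound to cells lacking the transfected receptor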
Protocol: as §1

human GIP receptor [7] = biological target: T2, human GIP receptor; experiment: 125I-hGIP(1-42) competition binding, COS-7 cells expressing human GIPR, with 2% HSA;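 note: nonspecific signal taken as radioligand bound to untransfected cells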
Protocol: as §1

human GIP receptor [8] = biological target: T2, human GIP receptor; experiment: cell-based or functional assay; remark: listed apart in the source
human GIP receptor [9] = biological target: T2, human GIP receptor; experiment: ratio of Ki with 2% HSA to Ki without HSA, 125I-hGIP competition binding on hGIPR COS-7 cells;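 note: nonspecific binding was defined as radioligand signal on cells lacking the receptor transfection, with cell lysates measured after washes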
Protocol: as §1

Binder	IC50 (human GIP receptor [1])	logIC50 (human GIP receptor [1])	Fold change HSA (2%)/Casein (0.1%) (human GIP receptor [2])	cAMP agonism (human GIP receptor [3])	cAMP agonism, EC50 (log) (human GIP receptor [3])	cAMP agonism, Emax (human GIP receptor [3])	cAMP antagonism (human GIP receptor [3])	cAMP antagonism, log (human GIP receptor [3])	IC50 (human GIP receptor [4])	log IC50 (human GIP receptor [4])	IC50 (human GIP receptor [5])	logIC50 (human GIP receptor [5])	Ki (human GIP receptor [6])	Ki (human GIP receptor [7])	cAMP accumulation IC50 (human GIP receptor [8])	cAMP accumulation logIC50 (human GIP receptor [8])	Fold (Ki + HSA / Ki - HSA) (human GIP receptor [9])	cAMP accumulation Fold (fold change from GIP(5-30)NH2) (human GIP receptor [8])
B1	0.575 µM	-6.2 log M	3.2 fold	79 nM	-7 log M and -7.1 log M	12	79 nM	-7.1 log M	0.118 µM	-6.9 log M and -6.93 log M	0.182 µM	-6.7 log M						
TFISDYSIAMDKIHQQDFVNWLLAQK-NH2 (Not lipidated) [hGIP(5-30)NH2]													0.0063 µM	0.0067 µM	0.0275 µM	-7.56 log(M)	1 fold	
B2													0.281 µM	0.807 µM	0.389 µM	-6.41 log(M)	2.8 fold	14.1 fold
B3													0.0413 µM	0.0977 µM	0.148 µM	-6.83 log(M)	2.3 fold	5.3 fold
B4													0.594 µM	1.3 µM	0.891 µM	-6.05 log(M)	2.2 fold	32.4 fold
B5													0.005 µM	0.029 µM	0.024 µM	-7.62 log(M)	5.8 fold	0.9 fold
B6													0.0265 µM	0.126 µM	0.0813 µM	-7.09 log(M)	4.8 fold	3 fold
B7													0.0791 µM	0.5 µM	0.0316 µM	-7.5 log(M)	6.3 fold	1.1 fold

— patent publication US20200087373A1 (UNIVERSITY OF COPENHAGEN, published 2020)
